Data set [1] concerns the target T1, Anabaena sp. PCC 7120 RbcL-Raf1 complex (RbcL8Raf1_(8)) (Anabaena sp. PCC 7120, UniProt P00879 1-476; Q8YLP6 1-361).
T1 construct: RbcL, Anabaena sp; as m1; plasmid pET19-His-RbcL–Raf1; Raf1, Anabaena sp; as m2; The preparation holds L8F8 and a fraction of L2F2 on native-PAGE; also called L8F8; L2F2 (smaller form in the same preparation); copies: 8 + 8
The experiment in a line: native gel or EMSA; RuBisCO assembly assays: 0.5 µM L8F8 or L8F8X16 mixed with Flag-RbcS (0-10-fold to RbcL), with or without pre-incubation with 8 µM RbcX or RbcX^E32A&R69A or RbcX2 at 0-1 fold to RbcL; 25 °C, 20 mM Tris-HCl pH 8.0, 300 mM NaCl, 5 mM MgCl2, 5% glycerol; ~0.5 h; 6% native-PAGE, bands analysed by SDS-PAGE. Particulars: both partners purified.

Data set [2] concerns the molecule itself. The experiment in a line: cryo-EM structure; RbcL–Raf1–RbcX ternary complex co-expressed in E. coli with GroEL-GroES, purified by Ni-NTA and gel filtration in 50 mM Tris-HCl pH 8.0, 20 mM NaCl, 5 mM MgCl2; ~2 mg/mL; D4 symmetry; 3.3 Å.

T1 sequence (Q8YLP6 whole entry, one chain of several): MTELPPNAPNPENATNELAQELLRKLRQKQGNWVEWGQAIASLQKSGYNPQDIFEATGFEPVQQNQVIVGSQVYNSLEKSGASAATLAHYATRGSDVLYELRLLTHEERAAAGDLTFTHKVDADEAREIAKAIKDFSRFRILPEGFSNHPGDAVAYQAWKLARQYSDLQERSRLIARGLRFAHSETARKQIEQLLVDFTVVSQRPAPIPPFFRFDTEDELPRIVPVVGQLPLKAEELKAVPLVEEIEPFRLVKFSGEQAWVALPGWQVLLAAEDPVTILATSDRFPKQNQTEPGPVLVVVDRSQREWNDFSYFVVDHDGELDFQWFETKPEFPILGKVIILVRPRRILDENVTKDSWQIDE

B1: Recombinant Anabaena sp. PCC 7120 Flag-RbcS (RuBisCO small subunit) (natural protein, UniProt P06514 1-109, looked up)
chain: MQTLPKERRYETLSYLPPLTDVQIEKQVQYILSQGYIPAVEFNEVSEPTELYWTLWKLPLFGAKTSREVLAEVQSCRSQYPGHYIRVVGFDNIKQCQILSFIVHKPSRY
notes: RbcS, RuBisCO small subunit, Anabaena sp; coding region amplified from genomic DNA; plasmid pET19-Flag-RbcS; A His-RbcS was also made (pET19-His-RbcS); the assembly-assay methods name Flag-RbcS; source: E. coli BL21 (DE3), purified (anti-FLAG M2 gel, Superdex 75); also in lysate (holoenzyme co-purification)
Take B1: the binding result in data set [1] was “binds”.

B2: RuBisCO large subunit RbcL from Anabaena sp. PCC 7120 (His-RbcL) (natural protein, UniProt P00879 1-476, looked up)
chain: MSYAQTKTQTKSGYKAGVQDYRLTYYTPDYTPKDTDILAAFRVTPQPGVPFEEAAAAVAAESSTGTWTTVWTDLLTDLDRYKGRCYDIEPVPGEDNQFIAYIAYPLDLFEEGSITNVLTSIVGNVFGFKALRALRLEDIRFPVAYIKTFQGPPHGIQVERDKLNKYGRPLLGCTIKPKLGLSAKNYGRAVYECLRGGLDFTKDDENINSAPFQRWRDRFLFVADAITKAQAETGEIKGHYLNVTAPTCEEMLKRAEYAKELKQPIIMHDYLTAGFTANTTLARWCRDNGVLLHIHRAMHAVIDRQKNHGIHFRVLAKALRLSGGDHIHTGTVVGKLEGERGITMGFVDLLRENYVEQDKSRGIYFTQDWASLPGVMAVASGGIHVWHMPALVEIFGDDSVLQFGGGTLGHPWGNAPGATANRVALEACVQARNEGRNLAREGNDVIREAAKWSPELAVACELWKEIKFEFEAMDTV
notes: RbcL, ribulose-1,5-bisphosphate carboxylase/oxygenase large subunit, Anabaena sp; coding region amplified from genomic DNA; plasmid pET19-His-RbcL; also called RbcL8 core; source: E. coli BL21 (DE3), co-expressed with GroEL-GroES and chaperones, purified (Ni-NTA, gel filtration); also in lysate (holoenzyme co-purification)
For the molecule B2, in data set [2], the stoichiometry N (usually a count of units in the complex or per binding partner) was determined as 8.

B3: RbcX from Anabaena sp. PCC 7120, co-expressed in the ternary complex (natural protein)
chain: MNLKQIAKDTAKTLQSYLTYQALMTVLAQLGETNPPLALWLHTFSVGKVQDGEAYVKELFREQPDLALRIMTVREHIAEEVAEFLPEMVRSGIQQANMEQRRQHLERMTHLSLSNPSPESEQQTISDTDWDH
notes: RbcX, RuBisCO chaperone, Anabaena sp; coding region amplified from genomic DNA; plasmid pCDFduet-GroEL-GroES-RbcX-Raf1; No tag is named for this RbcX in the plasmid name; also called RbcX2 (dimer); source: E. coli BL21 (DE3), co-expressed with His-RbcL, Raf1 and GroEL-GroES, co-purified (Ni-NTA, gel filtration)
In the case of B3, in data set [2], the “stoichiometry N” value was 2.

Values taken from article PMC9485235, “Structural insights into cyanobacterial RuBisCO assembly coordinated by two chaperones Raf1 and RbcX” (Cell Discovery, 2022).
